Measured values reported in patent CN115819582A (HEFEI TIANGANG IMMUNOLOGY PHARMACEUTICAL CO LTD, dated 2023).

B1: 鼠单抗mAb004 (antibody, mouse IgG1, kappa)
heavy: QVQLQQPGAELVKPGTSVKLSCKASGYNFTSYWINWVKLRPGQGLEWIGDIYPGNYSPNYNEKFLNKATLTTDTASSTAYMQLNNLASEDSAVYYCASGYFDYWGQGTTLIVSAAKTTPPSVYPLAPGSAAQTNSMVTLGCLVKGYFPEPVTVTWNSGSLSSGVHTFPAVLQSDLYTLSSSVTVPSSTWPSETVTCNVAHPASSTKVDKKIVPRDCGCKPCICTVPEVSSVFIFPPKPKDVLTITLTPKVTCVVVDISKDDPEVQFSWFVDDVEVHTAQTQPREEQFNSTFRSVSELPIMHQDWLNGKEFKCRVNSAAFPAPIEKTISKTKGRPKAPQVYTIPPPKEQMAKDKVSLTCMITDFFPEDITVEWQWNGQPAENYKNTQPIMDTDGSYFVYSKLNVQKSNWEAGNTFTCSVLHEGLHNHHTEKSLSHSPGK
light: DIVMTQSPSSLSVSAGEEVIMSCKSSQSLLNSGTQKNYLAWYQQKPGQPPKLLIYGTSTRESGVPDRFTGSGSGTDFTLTINNVQAEDLAIYYCQNDHSYPYTFGGGTKLEIKRADAAPTVSIFPPSSEQLTSGGASVVCFLNNFYPKDINVKWKIDGSERQNGVLNSWTDQDSKDSTYSMSSTLTLTKDEYERHNSYTCEATHKTSTSPIVKSFNRNEC
notes: Mouse monoclonal antibody from a hybridoma; also called PVRIG抗体
B2: 鼠单抗mAb003 (antibody, mouse IgG1, kappa, V domains shown)
VH: EVQLQQSGPELVKPGASVRITCKASGYTFTDYNIHWVKQSHGKSLEWIGYIYPYNGGSGYNQKFKSQATLTVDTSSTTAYMEIRSLTSEDSAVYYCAREEVRRDEALDFWGQGTSVTVSS
VL: DIQMTQSPASLSVSVGETVNITCRVSENIYSNLAWYQQKQGKSPQLLVYGASNLPDGVPSRFSGSGSGTQYSLKINTLQSEDFGTYYCQHFWGTPYTFGGGTKLEIKR
notes: as for B1
B3: 鼠单抗mAb002 (antibody, mouse IgG1, kappa, V domains shown)
VH: EVQLQQSGPELVKPGASMKISCKASGYSFTGYTMNWVKQSPGKNLEWIGLITPYNNDTSYNQKFKGKATLTVDKSSSTAYMELLSLTSEDSAVYYCARWVYGNYVGWFAYWGQGTLVTVSA
VL: DIVMTQSHKFMSTSVGDRVNITCKASQDVSTSVTWYQQKPGQSPKLLIYSTSYRYTGVPDRFTGSGSGTDFTFTISSVQAEDLAVYYCQQHYSTPWTFGGGTKLEIKR
notes: as for B1
B4: 鼠单抗mAb001 (antibody, mouse IgG1, kappa, V domains shown)
VH: EVQLQQSGPDLVKTGASVKISCKAVGYSFTGYNVHWVKQSHDKSLEWIGYIHFYTGATDYNQKFKDKATFTVDASSNTAYMQFNSLTSEDSAVYYCAIMRWAVDYWGQGTSVTVSS
VL: QIVLTQSPTIMSASPGETVTMTCSVSSSVNYIYWYQQKSGASPKRWIYDTSKLASGVPSRFSGSGSGASYSLTISNMEAEDAATYYCQQWSSNPYTFGGGTKLEIKR
notes: as for B1

target: T1, 重组人PVRIG-人IgG1 Fc融合蛋白 (human); test: ELISA, coated PVRIG-Fc 0.5 ug/ml, anti-mouse IgG-HRP
T1 construct: The Fc gene was added at the C-terminus of the gene for the PVRIG extracellular domain; no linker or signal peptide is stated; also called 人PVRIG重组蛋白
T1 sequence (chain, as listed by the source limits assumed): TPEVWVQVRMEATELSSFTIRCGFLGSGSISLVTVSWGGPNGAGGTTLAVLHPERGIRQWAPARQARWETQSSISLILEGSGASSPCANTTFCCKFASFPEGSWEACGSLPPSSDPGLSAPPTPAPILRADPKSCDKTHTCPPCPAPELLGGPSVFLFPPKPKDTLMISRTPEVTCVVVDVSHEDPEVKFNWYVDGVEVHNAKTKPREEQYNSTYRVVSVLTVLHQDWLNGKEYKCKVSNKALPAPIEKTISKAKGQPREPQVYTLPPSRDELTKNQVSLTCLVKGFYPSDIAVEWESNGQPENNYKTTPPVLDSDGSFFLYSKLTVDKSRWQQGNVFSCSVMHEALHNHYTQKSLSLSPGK

binding result | Binder
binds | B1
binds | B2
binds | B3
binds | B4
